T1: human EpCAM expressed on cells (CHO, Colo205, 293) (human, UniProt P16422 24-314)
T1 sequence (looked up): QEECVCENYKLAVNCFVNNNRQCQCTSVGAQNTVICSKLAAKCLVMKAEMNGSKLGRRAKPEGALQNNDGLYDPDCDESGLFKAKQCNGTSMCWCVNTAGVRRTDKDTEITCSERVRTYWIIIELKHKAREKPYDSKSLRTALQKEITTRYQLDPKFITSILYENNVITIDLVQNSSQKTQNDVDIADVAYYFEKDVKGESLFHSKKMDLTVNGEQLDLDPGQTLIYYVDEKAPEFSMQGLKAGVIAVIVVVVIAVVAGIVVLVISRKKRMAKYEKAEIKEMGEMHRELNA

T2: recombinant human EpCAM extracellular domain (human, UniProt P16422 24-265)
T2 construct: extracellular domain; Plate-coated antigen of the ELISAs; also called human EpCAM ECD; recombinant EpCAM antigen
T2 sequence (looked up): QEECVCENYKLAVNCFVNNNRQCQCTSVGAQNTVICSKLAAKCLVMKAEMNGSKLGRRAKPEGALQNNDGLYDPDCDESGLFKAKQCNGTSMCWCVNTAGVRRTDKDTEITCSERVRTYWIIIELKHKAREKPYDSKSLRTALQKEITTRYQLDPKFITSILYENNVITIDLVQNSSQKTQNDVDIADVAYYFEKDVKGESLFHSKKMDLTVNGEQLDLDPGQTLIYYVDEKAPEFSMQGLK


Key:
[1] = target: T1, human EpCAM expressed on cells (CHO, …); test: cell-based or functional assay
[2] = target: T3, cyno EpCAM (recombinant, ELISA antigen) (cynomolgus monkey); test: ELISA with pH titration, cyno EpCAM
T3 construct: extracellular domain; also called cynomolgus EpCAM extracellular domain
Protocol: (§1) Binding activities of the conjugated humanized conditionally active anti-EpCAM antibodies to cyno EpCAM were also measured by ELISA with pH titration. […] The ratios of binding activities at pH 6.0 and pH 7.4 to the cyno EpCAM by the conjugated humanized conditionally active anti-EpCAM antibodies, as well as their pH inflection points are summarized in Table 15.
(§2) The ELISA assay was performed using the following protocol: [0388] 1) Coat ELISA plates with 100 μL of 0.5 μg/mL (06_20_17 and 06_28_17 Experiments) or 1 μg/mL (07_06_17 and 07_11_17 Experiments) recombinant EpCAM antigen in carbonate-bicarbonate coating buffer [0389] 2) Cover plates with sealing film and incubate overnight at 4° C. [0390] 3) Decant plates and tap out residual liquid on a stack of paper towels [0391] […] 5) Add 200 μL of various pH incubation buffers to the wells according to the sample map.
Target sequence in this assay (Q1WER1 24-265): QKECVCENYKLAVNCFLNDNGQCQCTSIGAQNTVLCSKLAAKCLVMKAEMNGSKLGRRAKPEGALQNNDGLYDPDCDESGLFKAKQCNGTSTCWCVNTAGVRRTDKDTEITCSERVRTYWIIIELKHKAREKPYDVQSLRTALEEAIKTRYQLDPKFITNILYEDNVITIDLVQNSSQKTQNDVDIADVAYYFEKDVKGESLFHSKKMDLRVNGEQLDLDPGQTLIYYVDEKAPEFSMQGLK

[3] = target: T2, recombinant human EpCAM extracellular …; test: ELISA with pH titration, human EpCAM
Protocol: (§3) Binding activities of conjugated humanized conditionally active anti-EpCAM antibodies to human EpCAM were measured by ELISA with pH titration. […] The ratios of binding activities to human EpCAM of the conjugated humanized conditionally active anti-EpCAM antibodies at pH 6.0 and pH 7.4, as well as their pH inflection points are summarized in Table 14.
as §2

[4] = target: T3, cyno EpCAM (recombinant, ELISA antigen); test: ELISA of MMAE conjugates, cyno EpCAM, pH 6.0
Protocol: (§4) A similar ELISA analysis was also carried out using cyno EpCAM to measure the binding affinities of the conjugated humanized conditionally active anti-EpCAM antibodies. […] The EC50 values for binding to the cyno EpCAM by the conjugated humanized conditionally active anti-EpCAM antibodies are summarized in Table 13.
as §2
Target sequence in this assay (Q1WER1 24-265): as above

[5] = target: T3, cyno EpCAM (recombinant, ELISA antigen); test: ELISA of MMAE conjugates, cyno EpCAM, pH 7.4
Protocol: as §4, §2
Target sequence in this assay (Q1WER1 24-265): as above

[6] = target: T2, recombinant human EpCAM extracellular …; test: ELISA of MMAE conjugates, human EpCAM, pH 6.0
Protocol: (§5) The humanized conditionally active anti-EpCAM antibodies were conjugated to MMAE to create antibody drug conjugates. Binding activities of the conjugated humanized conditionally active anti-EpCAM antibodies to human EpCAM were measured by ELISA at pH 6.0 and pH 7.4 at different antibody concentrations. […] The EC50 values for binding to the human EpCAM by the conjugated humanized conditionally active anti-EpCAM antibodies are summarized in Table 12.
as §2

[7] = target: T2, recombinant human EpCAM extracellular …; test: ELISA of MMAE conjugates, human EpCAM, pH 7.4
Protocol: as §5, §2

[8] = target: T4, cyno EpCAM expressed on 293 cells (cynomolgus monkey); test: FACS of MMAE conjugates on 293 cells expressing cyno EpCAM, pH 6.0
T4 construct: whole, on cells; also called 293 cells expressing cyno EpCAM
Protocol: (§6) A similar FACS analysis was also carried out using 293 cells expressing cyno EpCAM. […] The EC50 values for binding to the 293 cells expressing cyno EpCAM by the conjugated humanized conditionally active anti-EpCAM antibodies are summarized in Table 18.

[9] = target: T4, cyno EpCAM expressed on 293 cells; test: FACS of MMAE conjugates on 293 cells expressing cyno EpCAM, pH 7.4
Protocol: as §6

[10] = target: T1, human EpCAM expressed on cells (CHO, …); test: FACS of MMAE conjugates on 293 cells expressing human EpCAM, pH 6.0
Protocol: (§7) A similar FACS analysis was also carried out using 293 cells expressing human EpCAM. […] The EC50 values for binding to the 293 cells expressing human EpCAM by the conjugated humanized conditionally active anti-EpCAM antibodies are summarized in Table 17.

[11] = target: T1, human EpCAM expressed on cells (CHO, …); test: FACS of MMAE conjugates on 293 cells expressing human EpCAM, pH 7.4
Protocol: as §7

[12] = target: T1, human EpCAM expressed on cells (CHO, …); test: FACS of MMAE conjugates on Colo205 cells expressing human EpCAM, pH 6.0
Protocol: (§8) Binding activities of the conjugated humanized conditionally active anti-EpCAM antibodies (with MMAE) to Colo205 cells expressing human EpCAM was measured by FACS at two different pH: 6.0 and 7.4. […] The EC50 values for binding to the Colo205 cells expressing human EpCAM by the conjugated humanized conditionally active anti-EpCAM antibodies are summarized in Table 16.

[13] = target: T1, human EpCAM expressed on cells (CHO, …); test: FACS of MMAE conjugates on Colo205 cells expressing human EpCAM, pH 7.4
Protocol: as §8

[14] = target: T3, cyno EpCAM (recombinant, ELISA antigen); test: ELISA with pH titration, cyno EpCAM; ratio of binding activities at pH 6.0 and pH 7.4
Protocol: as §1, §2
Target sequence in this assay (Q1WER1 24-265): as above

[15] = target: T3, cyno EpCAM (recombinant, ELISA antigen); test: direct binding ELISA, cyno EpCAM, pH 6.0 (printed as IC50)
[16] = target: T3, cyno EpCAM (recombinant, ELISA antigen); test: direct binding ELISA, cyno EpCAM, pH 7.4 (printed as IC50)
[17] = target: T3, cyno EpCAM (recombinant, ELISA antigen); test: direct binding ELISA, cyno EpCAM; ratio of the printed IC50 at pH 7.4 to pH 6.0
[18] = target: T2, recombinant human EpCAM extracellular …; test: direct binding ELISA, human EpCAM; ratio of the printed IC50 at pH 7.4 to pH 6.0
[19] = target: T2, recombinant human EpCAM extracellular …; test: direct binding ELISA, human EpCAM, pH 6.0 (table prints IC50, the text paragraph 376 says EC50)
[20] = target: T2, recombinant human EpCAM extracellular …; test: direct binding ELISA, human EpCAM, pH 7.4 (table prints IC50, the text paragraph 376 says EC50)
[21] = target: T2, recombinant human EpCAM extracellular …; test: ELISA with pH titration, human EpCAM; ratio of binding activities at pH 6.0 and pH 7.4
Protocol: as §3, §2

T4 sequence (Q1WER1 24-314): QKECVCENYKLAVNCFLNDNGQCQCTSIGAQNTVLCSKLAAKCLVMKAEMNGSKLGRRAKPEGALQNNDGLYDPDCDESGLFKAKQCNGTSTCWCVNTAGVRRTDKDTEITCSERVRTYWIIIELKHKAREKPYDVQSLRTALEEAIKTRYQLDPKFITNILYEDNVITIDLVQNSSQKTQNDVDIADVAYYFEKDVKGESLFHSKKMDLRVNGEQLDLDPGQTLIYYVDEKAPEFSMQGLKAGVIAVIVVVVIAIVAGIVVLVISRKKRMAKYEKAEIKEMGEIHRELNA

pH inflection point [2]	pH inflection point [3]	EC50 [4]	EC50 [5]	EC50 [6]	EC50 [7]	EC50 [8]	EC50 [9]	EC50 [10]	EC50 [11]	EC50 [12]	EC50 [13]	ratio (pH 6.0/7.4) [14]	ratio (pH 6.0/7.4) [21]	Binder	also measured
5.07 pH	6.71 pH	0.0311 µg/mL	0.0234 µg/mL	0.024 µg/mL	0.0147 µg/mL	1.36 µg/mL	1.74 µg/mL	0.129 µg/mL	0.112 µg/mL	0.301 µg/mL	0.375 µg/mL	0.93	–	BA-105-01-01 7376-vcMMAE (antibody, V domains shown, antibody conjugated to vcMMAE; chain and residues of attachment not stated) VH: QVQLQQSGAELAKPGASVKVSCKASGYTFTSYWMHWVKQRPGQGLEWIGYIRPSTGYTEYNQKFKDKATLTADKSSSTAYMQLSSLTFEDSAVYYCGRGDNWVGFANWGQGTLVTVSA VL: QIVLTQSPAIMSASLGEEIALTCSASSSISYMHWYQQKSGTSPKLLIYSTSNLASGVPSRFSGSGSGTFYSLTISSVEAEDAADYFCHQWSTYHTFGSGTKLEIK	IC50 for the in vitro killing of Colo205 cells, pH6.0 [1]: 12.9 ng/mL; IC50 for the in vitro killing of Colo205 cells, pH7.4 [1]: 16.8 ng/mL; ratio (pH7.4/pH6.0) of the IC50 for the in vitro killing of Colo205 cells [1]: 1.3
–	–	–	–	–	–	–	–	–	–	–	–	–	–	BA-105-06-01 (antibody, V domains shown, Humanized) VH: EVQLVQSGAEVKKPGATVKISCKVSGYTFTSYWMHWIRQPPGKGLEWIGYIRPSTGYTEYNQKFKDRFTISRDNSKNTLYLQMNSLRAEDTAVYYCGRGDNWVGFANWGQGTLVTVSS VL: EIVLTQSPDFQSVTPKEKVTITCSASSSISYMHWYQQKPGKAPKLLIYSTSKLASGVPDRFSGSGSGTDFTLKISRVEAEDVGVYYCHQWSTYETFGQGTKVEIK	IC50 [15]: 0.00371 µg/mL; IC50 [16]: 0.0635 µg/mL; ratio (pH7.4/pH6.0) [17]: 17.1; ratio (pH7.4/pH6.0) [18]: 5.6; IC50 [19]: 0.0299 µg/mL; IC50 [20]: 0.168 µg/mL
6.3 pH	–	0.0877 µg/mL	0.257 µg/mL	0.0392 µg/mL	0.127 µg/mL	4.72 µg/mL	17.7 µg/mL	0.0637 µg/mL	0.0849 µg/mL	0.15 µg/mL	0.153 µg/mL	2.75	1.75	BA-105.4-01-02 8316-vcMMAE (antibody, V domains shown, antibody conjugated to vcMMAE; chain and residues of attachment not stated) VH: EVQLVQSGAEVKKPGESLRISCKGSGYTFTSYWMHWIRQSPSRGLEWLGYIRPSTGYTEYNQKFKDRVTISADKSISTAYLQWSSLKASDTAMYYCGRGDNWVGFANWGQGTLVTVSS VL: EIVLTQSPDFQSVTPKEKVTITCSASSSISYMHWYQQKPGKAPKLLIYSTSNLASGVPDRFSGSGSGTDFTLKISRVEAEDVGVYYCHQWSTYETFGQGTKVEIK	–
6.28 pH	6.98 pH	0.0659 µg/mL	0.3 µg/mL	0.0306 µg/mL	0.0703 µg/mL	5.54 µg/mL	43.4 µg/mL	0.0772 µg/mL	0.109 µg/mL	0.188 µg/mL	0.203 µg/mL	2.76	2.39	BA-105.4-01-05 8317-vcMMAE (antibody, V domains shown, antibody conjugated to vcMMAE; chain and residues of attachment not stated) VH: EVQLVQSGAEVKKPGATVKISCKVSGYTFTSYWMHWIRQPPGKGLEWIGYIRPSTGYTEYNQKFKDRFTISRDNSKNTLYLQMNSLRAEDTAVYYCGRGDNWVGFANWGQGTLVTVSS VL: EIVLTQSPDFQSVTPKEKVTITCSASSSISYMHWYQQKPGKAPKLLIYSTSNLASGVPDRFSGSGSGTDFTLKISRVEAEDVGVYYCHQWSTYETFGQGTKVEIK	–
6.16 pH	6.83 pH	0.0809 µg/mL	0.249 µg/mL	0.0324 µg/mL	0.22 µg/mL	7.96 µg/mL	61.1 µg/mL	0.206 µg/mL	0.335 µg/mL	0.464 µg/mL	0.693 µg/mL	3.61	6.74	BA-105.4-02-01 8318-vcMMAE (antibody, V domains shown, antibody conjugated to vcMMAE; chain and residues of attachment not stated) VH: EVQLVQSGAEVKKPGATVKISCKVSGYTFTSYWMHWVRQAPGQGLEWMGYIRPSTGYTEYNQKFKDRFTISRDNSKNTLYLQMNSLRAEDTAVYYCGRGDNWVGFANWGQGTLVTVSS VL: EIVMTQSPATLSVSPGERATLSCSASSSISYMHWYQQKPGKAPKLLIYSTSNLASGVPSRFSGSGSGTEFTLTISSLQPDDFATYYCHQWSTYETFGQGTKVEIK	–

Reference: patent US20260053904A1 (BIOATLA, published 2026)
